From publication PMC7367873, “Dissecting the sequence determinants for dephosphorylation by the catalytic subunits of phosphatases PP1 and PP2A” (Nature Communications, 2020)

B1: CLASP2 (protein, UniProt O75122 1-1294, looked up)
CLIP-associating protein 2: MAMGDDKSFDDEESVDGNRPSSAASAFKVPAPKTSGNPANSARKPGSAGGPKVGGASKEGGAGAVDEDDFIKAFTDVPSIQIYSSRELEETLNKIREILSDDKHDWDQRANALKKIRSLLVAGAAQYDCFFQHLRLLDGALKLSAKDLRSQVVREACITVAHLSTVLGNKFDHGAEAIVPTLFNLVPNSAKVMATSGCAAIRFIIRHTHVPRLIPLITSNCTSKSVPVRRRSFEFLDLLLQEWQTHSLERHAAVLVETIKKGIHDADAEARVEARKTYMGLRNHFPGEAETLYNSLEPSYQKSLQTYLKSSGSVASLPQSDRSSSSSQESLNRPFSSKWSTANPSTVAGRVSAGSSKASSLPGSLQRSRSDIDVNAAAGAKAHHAAGQSVRSGRLGAGALNAGSYASLEDTSDKLDGTASEDGRVRAKLSAPLAGMGNAKADSRGRSRTKMVSQSQPGSRSGSPGRVLTTTALSTVSSGVQRVLVNSASAQKRSKIPRSQGCSREASPSRLSVARSSRIPRPSVSQGCSREASRESSRDTSPVRSFQPLASRHHSRSTGALYAPEVYGASGPGYGISQSSRLSSSVSAMRVLNTGSDVEEAVADALKKPARRRYESYGMHSDDDANSDASSACSERSYSSRNGSIPTYMRQTEDVAEVLNRCASSNWSERKEGLLGLQNLLKNQRTLSRVELKRLCEIFTRMFADPHGKRVFSMFLETLVDFIQVHKDDLQDWLFVLLTQLLKKMGADLLGSVQAKVQKALDVTRESFPNDLQFNILMRFTVDQTQTPSLKVKVAILKYIETLAKQMDPGDFINSSETRLAVSRVITWTTEPKSSDVRKAAQSVLISLFELNTPEFTMLLGALPKTFQDGATKLLHNHLRNTGNGTQSSMGSPLTRPTPRSPANWSSPLTSPTNTSQNTLSPSAFDYDTENMNSEDIYSSLRGVTEAIQNFSFRSQEDMNEPLKRDSKKDDGDSMCGGPGMSDPRAGGDATDSSQTALDNKASLLHSMPTHSSPRSRDYNPYNYSDSISPFNKSALKEAMFDDDADQFPDDLSLDHSDLVAELLKELSNHNERVEERKIALYELMKLTQEESFSVWDEHFKTILLLLLETLGDKEPTIRALALKVLREILRHQPARFKNYAELTVMKTLEAHKDPHKEVVRSAEEAASVLATSISPEQCIKVLCPIIQTADYPINLAAIKMQTKVIERVSKETLNLLLPEIMPGLIQGYDNSESSVRKACVFCLVAVHAVIGDELKPHLSQLTGSKMKLLNLYIKRAQTGSGGADPTTDVSGQS
B2: AMER1 (protein, UniProt Q5JTC6 1-1135, looked up)
APC membrane recruitment …: METQKDEAAQAKGAAASGSTREQTAEKGAKNKAAEATEGPTSEPSSSGPGRLKKTAMKLFGGKKGICTLPSFFGGGRSKGSGKGSSKKGLSKSKTHDGLSEAAHGPEDVVSEGTGFSLPLPELPCQFPSSQSAHGALETGSRCKTSVAGATEKAVAEKFPSMPKPKKGLKGFFSSIRRHRKSKVTGAEQSEPGAKGPERVRARPHEHVSSAPQVPCFEETFQAPRKENANPQDAPGPKVSPTPEPSPPATEKMACKDPEKPMEACASAHVQPKPAPEASSLEEPHSPETGEKVVAGEVNPPNGPVGDPLSLLFGDVTSLKSFDSLTGCGDIIAEQDMDSMTDSMASGGQRANRDGTKRSSCLVTYQGGGEEMALPDDDDEEEEEEEEVELEEEEEEVKEEEEDDDLEYLWETAQMYPRPNMNLGYHPTTSPGHHGYMLLDPVRSYPGLAPGELLTPQSDQQESAPNSDEGYYDSTTPGFEDDSGEALGLVRRDCLPRDSYSGDALYEFYEPDDSLENSPPGDDCLYDLHGRSSEMFDPFLNFEPFLSSRPPGAMETEEERLVTIQKQLLYWELRREQLEAQEARAREAHAREAHAREAYTREAYGREAYAREAHTWEAHGREARTREAQAREVRCRETQVRETQARQEKPVLEYQMRPLGPSVMGLAAGVSGTSQISHRGITSAFPTTASSEPDWRDFRPLEKRYEGTCSKKDQSTCLMQLFQSDAMFEPDMQEANFGGSPRRAYPTYSPPEDPEEEEVEKEGNATVSFSQALVEFTSNGNLFSSMSCSSDSDSSFTQNLPELPPMVTFDIADVERDGEGKCEENPEFHNDEDLAASLEAFELGYYHKHAFNNYHSRFYQGLPWGVSSLPRYLGLPGLHPRPPPAAMALNRRSRSLDTAETLEMELSNSHLVQGYLESDELQAQQEDSDEEDEEEEEGEWSRDSPLSLYTEPPGAYDWPAWAPCPLPVGPGPAWISPNQLDRPSSQSPYRQATCCIPPMTMSISLSVPESRAPGESGPQLARPSHLHLPMGPCYNLQPQASQSMRARPRDVLLPVDEPSCSSSSGGFSPSPLPQAKPVGITHGIPQLPRVRPEHPQPQPTHYGPSSLDLSKERAEQGASLATSYSSTAMNGNLAK
B3: PARD3 (protein, UniProt Q8TEW0 1-1356, looked up)
Partitioning defective 3 …: MKVTVCFGRTRVVVPCGDGHMKVFSLIQQAVTRYRKAIAKDPNYWIQVHRLEHGDGGILDLDDILCDVADDKDRLVAVFDEQDPHHGGDGTSASSTGTQSPEIFGSELGTNNVSAFQPYQATSEIEVTPSVLRANMPLHVRRSSDPALIGLSTSVSDSNFSSEEPSRKNPTRWSTTAGFLKQNTAGSPKTCDRKKDENYRSLPRDTSNWSNQFQRDNARSSLSASHPMVGKWLEKQEQDEDGTEEDNSRVEPVGHADTGLEHIPNFSLDDMVKLVEVPNDGGPLGIHVVPFSARGGRTLGLLVKRLEKGGKAEHENLFRENDCIVRINDGDLRNRRFEQAQHMFRQAMRTPIIWFHVVPAANKEQYEQLSQSEKNNYYSSRFSPDSQYIDNRSVNSAGLHTVQRAPRLNHPPEQIDSHSRLPHSAHPSGKPPSAPASAPQNVFSTTVSSGYNTKKIGKRLNIQLKKGTEGLGFSITSRDVTIGGSAPIYVKNILPRGAAIQDGRLKAGDRLIEVNGVDLVGKSQEEVVSLLRSTKMEGTVSLLVFRQEDAFHPRELNAEPSQMQIPKETKAEDEDIVLTPDGTREFLTFEVPLNDSGSAGLGVSVKGNRSKENHADLGIFVKSIINGGAASKDGRLRVNDQLIAVNGESLLGKTNQDAMETLRRSMSTEGNKRGMIQLIVARRISKCNELKSPGSPPGPELPIETALDDRERRISHSLYSGIEGLDESPSRNAALSRIMGESGKYQLSPTVNMPQDDTVIIEDDRLPVLPPHLSDQSSSSSHDDVGFVTADAGTWAKAAISDSADCSLSPDVDPVLAFQREGFGRQSMSEKRTKQFSDASQLDFVKTRKSKSMDLGIADETKLNTVDDQKAGSPSRDVGPSLGLKKSSSLESLQTAVAEVTLNGDIPFHRPRPRIIRGRGCNESFRAAIDKSYDKPAVDDDDEGMETLEEDTEESSRSGRESVSTASDQPSHSLERQMNGNQEKGDKTDRKKDKTGKEKKKDRDKEKDKMKAKKGMLKGLGDMFRFGKHRKDDKIEKTGKIKIQESFTSEEERIRMKQEQERIQAKTREFRERQARERDYAEIQDFHRTFGCDDELMYGGVSSYEGSMALNARPQSPREGHMMDALYAQVKKPRNSKPSPVDSNRSTPSNHDRIQRLRQEFQQAKQDEDVEDRRRTYSFEQPWPNARPATQSGRHSVSVEVQMQRQRQEERESSQQAQRQYSSLPRQSRKNASSVSQDSWEQNYSPGEGFQSAKENPRYSSYQGSRNGYLGGHGFNARVMLETQELLRQEQRRKEQQMKKQPPSEGPSNYDSYKKVQDPSYAPPKGPFRQDVPPSPSQVARLNRLQTPEKGRPFYS

Key:
[1] = system: GFP-14-3-3β and its binding proteins; test: GFP-14-3-3β co-IP with LC-MS/MS label-free quantification, untreated versus PP1c-treated; parameters: species or system human; conditions: pairwise comparison PP1 vs untreated, student's t-test; 3 replicates each; LC-MS/MS label-free quantification
GFP-14-3-3β = GFP-14-3-3β co-IP with LC-MS/MS, untreated GFP-14-3-3β versus GFP control (14-3-3 interactome); assay type: binding, human; conditions: pairwise comparison untreated GFP-14-3-3β vs GFP, student's t-test; 3 replicates each; LC-MS/MS label-free quantification

Molecule	Difference (log2), PP1 vs untreated [1] [log2]	Difference (log2), untreated vs GFP (GFP-14-3-3β) [log2]
B1	-2.4301	2.306
B2	-2.386	1.494
B3	-2.404	5.534
